Assay results: the DeepSol protein solubility set

Test: soluble on expression in E. coli; label from the status in PepcDB or PDB records
For “MSLTPLPYECQKCVLQFFEANRRFKLVERCDSLKAADKAAPLHIYKLYMNPRVIRINRHRYTLGLLRHLPKDHVYYSPYINNVNLDGGAAYDMDQYGLKDPRCNEVLSPGDLKVESKEKINNMEDMTMEMLQFAMRDFIRPQGRMQVQQREDPESSSEDDEDEAEDLPAEGSDDEDDDPQEAQIRRILGDAYLPRARYSSSESEASESEDEPDIDPAVTDQLEAYTNPYSWREENEPAPYRFGIRFQRMNLDFRRDRETFHGIIEYLDYNKKMYDAMKYITEKLFGKRAHPIVIKTLELGDAGGVYRLPENFKVKVSNMRFGTEFGLLWDGLNSIFHESTLPFKSLHMPLEHDHPVIHATQRLVIGTEKMFGENFAWIPFLLKLPQKNVYMLHSPLFHHDYVQLIDNWIETPKSIGTCFTFGVKQYHATQSTLNLLGDHPMVVSKRMEGVDCTEFPHCFNIPLTYESELNVYGKKRTENLDPLEFMPHVSWCLVFEVMPIGSALPLED”, the “soluble on expression in E. coli” value was “not soluble”. In the case of “MGLLAHFLKGPHKKTTLLLTRAGPVENPRHVLYSHPGLPLSPKGRSALLALLPLLQGFPVAHVYAADSLAEAEAARLFAEALGVPYTLLPELRERAWGAWEGLSFPEVEARFPGAVAAWTADEAGFAPPGGESVREAWERGRRAVKALLGKHRGQAILVVGNCTLNRAALSLALPLPPEEGLRLEQDYARLSVVDFYGEEGVVKALNLAVDWGHDPARGPQGPPGAS”, the “soluble on expression in E. coli” value was “soluble”. With “MVGNTFGRIFRVTTCGESYAGAFRKNLQIPKELFGGLIAIVDGVPPGIKLTADFVQEELDKRRPGKTPLDTPRKERDKVYIFSGVMEDDITTGAPVGMIIPNDVIEDEHINKHKSYKEVVRPGQAGYTFFKKYGQFADNIGAGRASGRETAARVAAGAVAKAVLDTMGIDVIAFVTEIHGIKAQENITYEMAKANYRKNEINCPDLEKAKEMIEELKRIKEEGDSVGGVVEIIARGVPAGLGEPVFDKLQATLAHALMSIGAIKGIEFGEGFGHTKLKGSESNDVPYYDEASGRVRFKTNRAGGILGGISNGEDIRIRVAVKPTPTISIPQKTVNMYTLENVEVEFNTRNDPSICPRIYPVCEAMVRIALLDALYIAKGYRAISSNIDPRWDRL” the “soluble on expression in E. coli” value was “not soluble”. With “MQGDAAEKARLRGERLAARDALTPAERQQKSLSMTAHGVSGIPFAPGTVISGFMPIRSEVDTRPLMEALRARDGRLVLPVVLDQETIVFRVFEADTPLVKTGFGTTGPGEDAEVLDPHILLVPLSVFDGEGQRIGYGAGHYDRAIARLHAKGRQPVLIGIAFDCQEVASVPAEPHDVALHAVLTESGLRWFSAQRLEHHHHHH” the “soluble on expression in E. coli” value was “not soluble”. In the case of “MLNVVKRDGRQVVFDSNKIFNAIKGAADEIGYDIKQSDILELTQKVIGRVEDLKIREISVEEVQNLVEEVLLENGNKEIGMAYCTYRKERTKVRE”, the “soluble on expression in E. coli” value was “not soluble”. In the case of “GSTERPVAGPYITFTDAVNETTIMLKWMYIPASNNNTPIHGFYIYYRPTDSDNDSDYKKDMVEGDKYWHSISHLQPETSYDIKMQCFNEGGESEFSNVMICETKARKSSGQ”, the “soluble on expression in E. coli” value was “soluble”. In the case of “MTGIYYLYLRQDDPKKATMRKLERFGLAKRVDIKGVGLKLVLTPYADIFLSREDAVLYEKYGLCVIEGSWNKIDSIKSLKFRIERRLPALLAANPVNYGKIGILSSVEATAAALYIIGYWDTAYALLSKFSWGLNFIKLNENPLNEYSTADRSEIKKIEESYFGLEHHHHHH”, the “soluble on expression in E. coli” value was “soluble”. For “MGSDKIHHHHHHMTGSNKVIISCAVTGSIHTPTMTPYLPITSTEIANAATGAIDAGAAIVHLHARHPDDGRPDQTVGAFRPFIEHIKAHTDGIINLTTGGAPTMSVEERLQPALHLKPEIASLNMGSMNFGLFPMLNRYKEFKHEWERHYLEGTRDLVFRNTFKDIEYVLSSCTGNDTRFEFECYDTAHLYNLAHFLDRKLVTPPLFVQTVFGILGGIGSHADDVAHMKRTADRLFGSNYVWSVLGAGRAQMPVASIAAAQGGNVRVGIEDSIWNGPGQLAKANSDQVRRVRQILEGMGLAIATPDEARTLLHLKGRNNVAF”, the “soluble on expression in E. coli” value was “not soluble”. For “MEFMRVERVLLKDYTTLGVGGPAELWTVETREELKRATEAPYRVLGNGSNLLVLDEGVPERVIRLAGEFQTYDLKGWVGAGTLLPLLVQEAARAGLSGLEGLLGIPAQVGGAVKMNAGTRFGEMADALEAVEVFHDGAFHVYCPEELGFGYRKSHLPPGGIVTRVRLKLKERPKEEILRRMAEVDRARKGQPKRKSAGCAFKNPPGQSAGRLIDERGLKGLRVGDAMISLEHGNFIVNLGQARAKDVLELVRRVQEELPLELEWEVWP”, the “soluble on expression in E. coli” value was “soluble”. In the case of “MSTASGITMASMSTYAILGCGSVGHAVAEELVEEGKDVLILDADEGRVEALRDQDLNAQQADICETDVAQTVADRDVVLIMSPDVNANAEAVRNIRESGGEQFIVARADDPVSADDLTELGADVVINPSAVIADSALRALETGELEYKASQLGDVIDGTEERMAILIHRSPDPDSIASAAALRAIAASRDVDADIIYEGEIGHQENRAFVNLLGIELTSNEDVNLDEYDTFALVDVAKGGEPAVESVDIVIDHYEHEHELEHDAAFSDIRPNISATSTILTKYIQELDLNLDQSVATALLYGIRAETLDFKRDTTPADLTAAAYLYPFADHDTLEQVESPSMSPETLDVLAEAIRNREVQGSHLVSNAGFIRDRDALAQAAQHLLNLEGITTTAVFAIADDTIYLAARSKDIRMNIGKVLSDAFGGMGETAGHSTDASVEIPLGIFTGLDTSDDNRDTLLELTEEAVKRKLFEAMGVDSSSSESSNGN”, the “soluble on expression in E. coli” value was “not soluble”. For “MRLTDQKRESIVQAAIAEFGDRGFEITSMDRIAARAEVSKRTVYNHFPSKEELFAEMLQRLWNCAPPQSEVVYRPLVSLREQLLELLWGKMRNLTDSSFLDLARVVVGATIHSPERAQVWLARINEREETFSAWIRAAQKDGRLKPVDPGFAATQMHALLKSFAFWPQVTFNAALLTPQEQSNVVESALNMFLGWYEIPG”, the “soluble on expression in E. coli” value was “soluble”. With “MKITHCKLKKEVQKEPLRSFVPEVTARSAADILGIHPDSAALFYRKIRTVTNHRLALAADEVFECPAGPGASCFGVRRKGRRGRGAAGKAVVFGIPKRNGRAYTVAEDDAEPETLPPAVKKKIMPDGIVYADSPGSRGKSDAGGFTRCRINRSKEFADRRNHINGIGNFWNQAKRALRKYNGIDRKPFPPLLRECEFRFNFGTPSRQLKILRDRCGILEHHHHHH” the “soluble on expression in E. coli” value was “soluble”. With “MGSDKIHHHHHHSESIIEEAVRKGEVLKGEIVPIDTALFRYAYRMRVQGDKAVILDLHNADYYYHVFTYPDFQYQSSFGKRGEGPGESIYAANIRFAGQDTVWVLDDGKGRMYQYSGIAGGKTPKQEKDILLDKRLFRSLDFDLKDASTVVIPDYSGENRFSWASLSSGELLRKSEQIPVSDPELLRESAPAVAQGWNSFVSFSPDKKILVSVTQFGDRLDIYSMASQKHIGELGGDGEPQFKVSPEGYGLPAGRICYYDVQVTDQYIYTIYDGRKFKDIMKLADAYQQGGKILRISTHEGDVVKTYVLDRPIAGIYVDEAAGMLFGLDVNADEQIVKFPLELE” the “soluble on expression in E. coli” value was “not soluble”. In the case of “MNPLLTDSRRQALRSASHWYAVLSGERVSPQQEARWQQWYEQDQDNQWAWQQVENLRNQLGGVPGDVASRALHDTRLTRRHVMKGLLLLLGAGGGWQLWQSETGEGLRADYRTAKGTVSRQQLEDGSLLTLNTQSAADVRFDAHQRTVRLWYGEIAITTAKDALQRPFRVLTRQGQLTALGTEFTVRQQDNFTQLDVQQHAVEVLLASAPAQKRIVNAGESLQFSASEFGAVKPLDDESTSWTKDILSFSDKPLGEVIATLTRYRNGVLRCDPAVAGLRLSGTFPLKNTDAILNVIAQTLPVKIQSITRYWINISPL”, the “soluble on expression in E. coli” value was “soluble”. For “MQKAVVMDEQAIRRALTRIAHEIIERNKGIDGCVLVGIKTRGIYLARRLAERIEQIEGASVPVGELDITLYRDDLTVKTDDHEPLVKGTNVPFPVTERNVILVDDVLFTGRTVRAAMDAVMDLGRPARIQLAVLVDRGHRELPIRADFVGKNVPTSRSELIVVELSEVDGIDQVSIHEK”, the “soluble on expression in E. coli” value was “soluble”. With “MNAILHDMAVPFYKPVSNECSLFEAASRKGLPLLLKGPTGCGKTRFVEHMAARMGRKLYTVACHDDLSAADLIGRYLLKGGATEWVDGPLTRAVREGAICYLDEVVEARKDVTVVLHPLTDNRRTLMIDRTGEELVAPPGFMLVASYNPGYQNILKRLKPSTRQRFLSIGFTFPDPVTETAVVARESGLSEAKVAPLVRLAGHVRALSGMDLEEGVSTRLLVYAASLMAGGMSIEAALEAAVIEPLTDEPDVAQALRDLIATVYGLEHHHHHH” the “soluble on expression in E. coli” value was “not soluble”. For “MKKIEIFDPAMCCPTGLCGTNINPELMRIAVVIESLKKQGIIVTRHNLRDEPQVYVSNKTVNDFLQKHGADALPITLVDGEIAVSQTYPTTKQMSEWTGVNLD”, the “soluble on expression in E. coli” value was “soluble”. In the case of “MGSDKIHHHHHHMENQTGIFNSYKIDPAHFDEAWLPTGDVRMHYKHLMETFKGLDIEEYLKINELAKGNLFNQGVTFNVYSENAEGVERLFPFDLFPRMIPSEEWKTIEVGIKQRNKAINLFLWDIYHEQKILKDKIVPSELLFSSQFYKKEMIGVDPPAGIYIHITGTDIIKHNDGKYYVLEDNLRCPSGVSYVLSNRETMKKIFFNLFSRYHVKPIMQYTEKLLSTIRSVAPDRIDNPLCVILTPGTYNSAYFEHSFLAHQMGIQLVEGRDLFVEKNFVYMKTIKGPKRVDVIYRRVDDDFIDPLVFNPKSVLGVPGLMSAYQAGNVTIINAPGTGVADDKAVYTYVPDIIKYYLGEEPILNNVPTYRCERPDEMKYVLENMHNLVVKPVDESGGYGVFIGNRKTKEEIEEYKKLILDTPRKYIAQPIMSLSVLSTFIEDSNESEQRHIDLRSFALMGKEETYVLDGGLTRVALSKGNLIVNSSQGGGSKDTWVIENY”, the “soluble on expression in E. coli” value was “not soluble”. For “MEKVNPKIQRLMSTDKQHFLTKHEFHTKETAERKDLLKFFIETRLKTDGGFLTNYLPDAERKDVATGHELLSESSGLYLRNLAFDTQGRFDNFYKQTKDTFYDGVQFSYRIDEQGNKYNVNASIDDLRIIRSLIEAGGHFKTDQYDQEIKKLGKSFMKTSMKDNILIDFYDSKSKQQSSETSLFYIDLITLGYLYKEFGISADYLQYHYQLIDDGYISDDLPLYQTKFNHQTNKYENNGTLNIIESLLTIVHLSEVGMAKQTSIDFVRKQVQQGTLFNSYDLNGSPVDKNQSAASYAIAALIGVAENDKELYRAAITVLNNFQIMDSSSPIYGGFGDKVTKQVYSYNNLMALLAYDF”, the “soluble on expression in E. coli” value was “not soluble”. In the case of “MGSDKIHHHHHHMSNLKPDSVIACLDCPNHVQAVLEASMWASIRLQAPIGLLYSVPSLQQKAAVDYSGCLNIDDENTLLDQFTAKEHLSNCELKAQGKRLLHQASSYCEQQRHKIKTYTLHRHEKLDESINYVDDQAQLIVIGHHVTCKSTLSQLIRSSHCPILVTHAPFLPPTSALFAFDNSPTSHKMLNWLCKTPLVRALMIHIVMVSKENSENCDALREAYARLKQAGIKCKKTLLDCRDVTSALTYYQHDNDIGLLMTGAFAQPRLIELLKGSDTKKLLGSTTTPYLLFPKA”, the “soluble on expression in E. coli” value was “not soluble”. For “MKFTWYGQSCFLIETSRNKKILLDPFNNSIGYPTFKGEADIITVSHHHFDHDFIDCVTNSPKVIDKPGDYKIDDITIKGIPSFHDNVHGAARGENTIFLFNIDGFNVCHLGDIGYVLSDLEVKSLGNVDVLMIPVGGNFTIDGAEAGQLCKKINSNIILPMHYKTTFTILPLEGAEKFIMSMKNAERLQSNVLTLDTKTNEKNQVKIFSIKLEHHHHHH”, the “soluble on expression in E. coli” value was “not soluble”.
